From article PMC7193609, “DNA replication machinery prevents Rad52-dependent single-strand annealing that leads to gross chromosomal rearrangements at centromeres”

Molecular target: T1, Rad52-6His-3Flag (wild type) (Schizosaccharomyces pombe (fission …, UniProt P36592 1-469))
T1 sequence: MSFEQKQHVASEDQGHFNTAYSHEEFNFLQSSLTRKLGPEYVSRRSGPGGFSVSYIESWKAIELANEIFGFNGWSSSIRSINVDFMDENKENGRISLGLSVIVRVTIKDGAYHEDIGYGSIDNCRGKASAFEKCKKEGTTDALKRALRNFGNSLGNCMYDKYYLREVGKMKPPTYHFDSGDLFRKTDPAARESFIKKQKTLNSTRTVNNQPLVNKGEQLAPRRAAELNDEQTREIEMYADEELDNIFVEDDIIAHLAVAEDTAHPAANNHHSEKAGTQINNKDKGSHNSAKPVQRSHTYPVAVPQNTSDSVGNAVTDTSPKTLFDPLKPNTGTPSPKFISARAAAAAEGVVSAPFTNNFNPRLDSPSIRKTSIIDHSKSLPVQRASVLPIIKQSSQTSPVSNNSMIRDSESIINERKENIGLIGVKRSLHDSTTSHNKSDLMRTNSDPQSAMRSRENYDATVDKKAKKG
Assay: EMSA; 0-200 nM Rad52, 2 nM DNA; complexes retained in well; EMSA: 32 mM Tris-HCl pH 7.8, 40 mM KCl, 0.8 mM DTT, 0.08 mg/mL BSA, 30 °C, 10 min; 10% native PAGE in 1x TAE
Conditions: protein: recombinant; tags: C-terminal 6His-3Flag; label: 5'-32P; single strand, 48 nt

GAAGCATTTATCAGGGTTATTGTCTCATGAGCGGATACATATTTGAAT (ssDNA) [Oligo211]: binds.
